# Source: patent publication US7049398B1, “Melanocortin metallopeptide constructs, combinatorial libraries and applications” (Palatin Technologies, Inc., priority 1999, dated 2006)
# Primed or numbered codes have the meaning given here. Where no end group is shown, it is not given here. [ ]: non-standard residue; d: D form. The star is where a group is joined. Phe(2,4-Cl2) = N[C@@H](Cc1ccc(Cl)cc1Cl)C(=O)O; Phe(2-Cl) = N[C@@H](Cc1ccccc1Cl)C(=O)O; Phe(4-F) = N[C@@H](Cc1ccc(F)cc1)C(=O)O; 2Nal = N[C@@H](Cc1ccc2ccccc2c1)C(=O)O; Hydrocinnamoyl = O=C(CCc1ccccc1)*; hPhe = N[C@@H](CCc1ccccc1)C(=O)O; Tic = O=C(O)[C@@H]1Cc2ccccc2CN1; Aic = NC1(C(=O)O)Cc2ccccc2C1; Phg = N[C@H](C(=O)O)c1ccccc1; Tle = CC(C)(C)[C@H](N)C(=O)O; 4Abz = Nc1ccc(C(=O)O)cc1; Ac6c = NC1(C(=O)O)CCCCC1; Heptanoyl = CCCCCCC(=O)*; Nle = CCCC[C@H](N)C(=O)O; 2Abz = Nc1ccccc1C(=O)O; Bz′ = not defined here; Ac3c = NC1(C(=O)O)CC1; Inp = O=C(O)C1CCNCC1; Tfa = O=C(C(F)(F)F)*; Bn = c1ccc(C*)cc1; βAla = NCCC(=O)O
# Tests used:
# [1] = biological target: T1, MC1-R (B-16 mouse melanoma cells) (Mus musculus, UniProt Q01727); experiment: Competitive inhibition binding assay, 125I-NDP-alpha-MSH, B-16 mouse melanoma cell membranes; details: 0.4 nM 125I-NDP-alpha-MSH
# T1 construct: B-16 mouse melanoma cells (containing MC1-R); endogenous in cells; host or cells: B-16 mouse melanoma cells
# Method: (§1) Representative Peptides of this Invention. Representative peptides of this invention were made using library and synthesis methods described herein, and selected peptides were tested using a binding assay. […] The peptides were synthesized using conventional peptide synthesis methods, and were complexed with rhenium using the methods described herein.
# (§2) The competitive inhibition binding assay was conducted using membranes prepared from hMC4-R and B-16 mouse melanoma cells (containing MC1-R) using 0.4 nM ^125I-NDP-alpha-MSH (New England Nuclear, Boston, Mass., USA) in 50 mM HEPES buffer containing 1 mM MgCl2, 2 mM CaCl2, and 5 mM KCl, at pH 7.2. The assay tube also contained a chosen concentration of the test peptide of this invention, complexed to a rhenium metal ion as indicated, for determining its efficacy in inhibiting the binding of ^125I-NDP-alpha-MSH to its receptor. Non-specific binding was measured by complete inhibition of binding of ^125I-NDP-alpha-MSH in the assay with the presence of 1 μM alpha-MSH. Incubation was for 90 minutes at room temperature, after which the assay mixture was filtered and the membranes washed three times with ice cold buffer. The filter was dried and counted in a gamma counter for remaining radioactivity bound to the membranes. 100% specific binding was defined as the difference in radioactivity (cpm) bound to cell membranes in the absence and presence of 1 μM alpha-MSH. The cpm obtained in presence of test compounds were normalized with respect to 100% specific binding to determine the percent inhibition of ^125I-NDP-alpha MSH binding. […]
# [2] = biological target: T2, hMC4-R (Homo sapiens, UniProt P32245); experiment: Competitive inhibition binding assay, 125I-NDP-alpha-MSH, hMC4-R membranes; details: 0.4 nM 125I-NDP-alpha-MSH
# T2 construct: expressed in transfected cells; host or cells: 293 cells
# Method: as §1, §2
# [3] = Conc. cut off 10 μM, B-16 mouse melanoma cell membranes
# [4] = Conc. cut off 10 μM, hMC4-R membranes
# [5] = Conc. cut off 1 μM test peptide
# [6] = Conc. cut off 1 μM, B-16 mouse melanoma cell membranes
# [7] = Conc. cut off 1 μM, hMC4-R membranes
# [8] = Conc. cut off 10 μM test peptide
# T1 sequence (Q01727 whole entry): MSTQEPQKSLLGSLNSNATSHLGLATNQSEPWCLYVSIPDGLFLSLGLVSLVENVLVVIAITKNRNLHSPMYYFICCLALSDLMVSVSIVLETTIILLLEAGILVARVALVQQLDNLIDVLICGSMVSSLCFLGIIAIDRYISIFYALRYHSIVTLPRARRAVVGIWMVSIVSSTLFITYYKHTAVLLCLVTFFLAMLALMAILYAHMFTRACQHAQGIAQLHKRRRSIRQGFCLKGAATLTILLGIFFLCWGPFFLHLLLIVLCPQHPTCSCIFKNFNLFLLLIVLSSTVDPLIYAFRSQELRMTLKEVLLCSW
# T2 sequence (P32245 whole entry): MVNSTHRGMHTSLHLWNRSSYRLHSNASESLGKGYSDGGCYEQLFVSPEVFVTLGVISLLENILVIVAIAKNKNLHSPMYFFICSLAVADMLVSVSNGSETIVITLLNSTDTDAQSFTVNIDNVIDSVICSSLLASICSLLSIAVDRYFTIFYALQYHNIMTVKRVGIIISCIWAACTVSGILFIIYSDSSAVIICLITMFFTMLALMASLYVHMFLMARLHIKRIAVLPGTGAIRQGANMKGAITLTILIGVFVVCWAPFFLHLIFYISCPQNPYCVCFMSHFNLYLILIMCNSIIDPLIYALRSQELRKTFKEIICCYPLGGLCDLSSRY
"% Inhibition MC1-R (B-16) [1, 5]","% Inhibition MC4-R [2, 5]","% Inhibition MC1-R (B-16) [1, 6]","% Inhibition MC4-R [2, 7]",Substance,further results
,,4%,4%,PL-1092 ([βAla]GK(Tfa)CW-NH2; also: ReO complex),
36%,21%,,,PL-1504 (Ac-RF[2Nal]NCF-NH2; also: ReO[V] complex),
14%,43%,,,PL-1635 (Ac-[Nle]RA[Ac3c]CW-NH2; also: ReO[V] complex),
17%,−7%,,,PL-1862 (Ac-FFC[3‑Abz]K-NH2; also: ReO[V] complex),
,,−4%,0%,PL-809 (Ac-H[hPhe]CW-NH2; also: ReO[V] complex),
36%,34%,,,PL-1621 (Ac-[Nle]AH[Ac6c]RCW-NH2; also: ReO[V] complex),
,,−3%,0%,PL-808 (Ac-HWCW-NH2; also: ReO[V] metal complex),
60%,3%,,,PL-1595 (Ac-[Nle]AH[Aic]RCW-NH2; also: ReO[V] metal complex),
25%,7%,,,PL-1926 ({Bz′}-Arg-Trp-Cys-NH2; also: ReO[V] complex),
6%,0%,,,PL-1860 (Ac-FFC[Inp]K-NH2; also: ReO[V] complex),
,,62%,22%,PL-1300 (Heptanoyl-ARCW-NH2; also: ReO[V] metal complex),
,,2%,10%,"PL-1090 (Ac-AXCW-NH2; not fully specified (residue 2); printed as Ac-L-Ala-L-Tyr(3′,5′ di-I, 4′-Ac)-L-Cys-L-Trp-NH2; also: ReO[V] metal complex)",
,,−2%,−1%,PL-810 (Ac-H[2Nal]CW-NH2; also: ReO[V] complex),
,,43%,54%,PL-1412 (FHCW-NH2; also: ReO[V] metal complex),
,,9%,10%,PL-1309 (Heptanoyl-CRCW-NH2; cysteine pairing not given here; also: ReO[V] metal complex),
21%,31%,,,PL-1510 (Ac-RFFCNAF-NH2; also: ReO[V] metal complex),
19%,30%,,,PL-1509 (Ac-RFCFNAF-NH2; also: ReO[V] metal complex),
28%,21%,,,PL-1478 (Ac-RFFCS-NH2; also: ReO[V] metal complex),
45%,29%,,,PL-1505 (Ac-RF[2Nal]NCF-NH2; also: ReO[V] complex),
,,−1%,13%,PL-1091 ([βAla]GC(Bn)CW-NH2; also: ReO complex),
,,2%,2%,"PL-1093 ([βAla]G[Phe(2,4-Cl2)]CW-NH2; also: ReO complex)",

# Further lines, the substance ahead of its results:
Substance,"% Inhibition MC1-R (B-16) [1, 5]","% Inhibition MC4-R [2, 5]","% Inhibition MC1-R (B-16) [1, 6]","% Inhibition MC4-R [2, 7]",further results
PL-1320 (Hydrocinnamoyl-RWC[Nle]-NH2; also: ReO[V] metal complex),,,,,"% Inhibition MC1-R (B-16) [1, 3]: 96%; % Inhibition MC4-R [2, 4]: 94%"
PL-1507 (Ac-RFFNCF-NH2; also: ReO[V] metal complex),20%,22%,,,
PL-1649 (Ac-HGGCW-NH2; also: ReO[V] metal complex),,,,,"% Inhibition MC1-R (B-16) [1, 8]: 19%; % Inhibition MC4-R [2, 8]: 62%"
PL-814 (Ac-HFCW-NH2; also: ReO[V] metal complex),,,−4%,0%,
PL-1334 (Hydrocinnamoyl-[Nle]WCR-NH2; also: ReO[V] metal complex),,,26%,12%,
PL-839 (Ac-HFWC-NH2; also: ReO[V] metal complex),,,,,"% Inhibition MC1-R (B-16) [1, 3]: 12%; % Inhibition MC4-R [2, 4]: 9%"
PL-1096 ([βAla]GLCW-NH2; also: ReO complex),,,,,"% Inhibition MC1-R (B-16) [1, 3]: 6%; % Inhibition MC4-R [2, 4]: 12%"
PL-1863 (Ac-FFC[2Abz]K-NH2; also: ReO[V] complex),19%,6%,,,
PL-1405 (Heptanoyl-FHCW-NH2; also: ReO[V] metal complex),,,20%,27%,
PL-1299 (Heptanoyl-[βAla]RCW-NH2; also: ReO[V] metal complex),,,1%,19%,
PL-1859 (Ac-FFC[Tic]K-NH2; also: ReO[V] complex),9%,−8%,,,
PL-1513 (Ac-RFFNFC-NH2; also: ReO[V] metal complex),23%,18%,,,
PL-1110 (KHFCW-NH2; also: ReO complex),,,,,"% Inhibition MC1-R (B-16) [1, 3]: 11%; % Inhibition MC4-R [2, 4]: 36%"
PL-1095 ([βAla]G[Lys(Z)]CW-NH2; also: ReO complex),,,,,"% Inhibition MC1-R (B-16) [1, 3]: 3%; % Inhibition MC4-R [2, 4]: 8%"
PL-1406 (Heptanoyl-RFHCW-NH2; also: ReO[V] metal complex),,,32%,42%,
PL-1655 (Ac-HFRCW-NH2; also: ReO[V] metal complex),,,,,"% Inhibition MC1-R (B-16) [1, 8]: 45%; % Inhibition MC4-R [2, 8]: 51%"
PL-1112 (HFCW-NH2; also: ReO complex),,,,,"% Inhibition MC1-R (B-16) [1, 3]: 0%; % Inhibition MC4-R [2, 4]: 8%"
PL-1416 (Ac-[Nle]AHFRCW-NH2; also: ReO[V] metal complex),,,85%,35%,
PL-1366 (Ac-HFWCR-NH2; also: ReO[V] metal complex),,,,,"% Inhibition MC1-R (B-16) [1, 3]: 78%; % Inhibition MC4-R [2, 4]: 64%"

Substance,"% Inhibition MC1-R (B-16) [1, 5]","% Inhibition MC4-R [2, 5]","% Inhibition MC1-R (B-16) [1, 6]","% Inhibition MC4-R [2, 7]",further results
PL-1114 ([βAla]HFCW-NH2; also: ReO[V] metal complex),,,,,"% Inhibition MC1-R (B-16) [1, 3]: 2%; % Inhibition MC4-R [2, 4]: 10%"
PL-1094 ([βAla]G[Phe(2-Cl)]CW-NH2; also: ReO complex),,,,,"% Inhibition MC1-R (B-16) [1, 3]: 57%; % Inhibition MC4-R [2, 4]: 19%"
PL-1348 (Ac-RHFCW-NH2; also: ReO[V] metal complex),,,,,"% Inhibition MC1-R (B-16) [1, 3]: 57%; % Inhibition MC4-R [2, 4]: 51%"
PL-1073 (Ac-A[Tle]CW-NH2; also: ReO complex),,,−6%,13%,
PL-811 (Ac-H[Phg]CW-NH2; also: ReO[V] complex),,,−5%,0%,
PL-1636 (Ac-[Nle]AH[Ac3c]RCW-NH2; also: ReO[V] complex),20%,38%,,,
PL-1364 (Ac-WFHCR-NH2; also: ReO[V] metal complex),,,,,"% Inhibition MC1-R (B-16) [1, 3]: 74%; % Inhibition MC4-R [2, 4]: 72%"
PL-1360 (Ac-RWFCH-NH2; also: ReO[V] metal complex),,,,,"% Inhibition MC1-R (B-16) [1, 3]: 57%; % Inhibition MC4-R [2, 4]: 62%"
PL-1606 (Ac-[Nle]RA[Aic]CW-NH2; also: ReO[V] metal complex),44%,63%,,,
PL-1511 (Ac-RFFNCAF-NH2; also: ReO[V] metal complex),21%,26%,,,
PL-1089 (Ac-A[Phe(4-F)]CW-NH2; also: ReO complex),,,,,"% Inhibition MC1-R (B-16) [1, 3]: 0%; % Inhibition MC4-R [2, 4]: 10%"
PL-1861 (Ac-FFC[4Abz]K-NH2; also: ReO[V] complex),0%,−14%,,,
PL-1315 (Ac-RW[Nle]CF-NH2; also: ReO[V] metal complex),,,,,"% Inhibition MC1-R (B-16) [1, 3]: 69%; % Inhibition MC4-R [2, 4]: 70%"
PL-1450 (Ac-[Nle]AHFRCW-NH2; also: ReO[V] metal complex),73%,66%,,,
PL-844 (Ac-FGCW-NH2; also: ReO[V] metal complex),,,,,"% Inhibition MC1-R (B-16) [1, 3]: 10%; % Inhibition MC4-R [2, 4]: 2%"
PL-1512 (Ac-RFFNACF-NH2; also: ReO[V] metal complex),20%,24%,,,
PL-1344 (Heptanoyl-RFHCW-NH2; also: ReO[V] metal complex),,,,,"% Inhibition MC1-R (B-16) [1, 3]: 89%; % Inhibition MC4-R [2, 4]: 81%"
PL-847 (Ac-FHGCW-NH2; also: ReO[V] metal complex),,,,,"% Inhibition MC1-R (B-16) [1, 3]: −6%; % Inhibition MC4-R [2, 4]: 6%"
